Experimental findings from KR20210010236A (dated 2021) are described below.

The target of assay [1] is T1, Full-length(FL)-WRS, human tryptophanyl-tRNA synthetase (NP_004175.2) (human, UniProt P23381 2-471).
T1 construct: In the western blot and immunoprecipitation the target was endogenous WRS in lysates of human cells (HeLa, HCT116, HEK293F); also called Human WRS; TrpRS
T1 sequence: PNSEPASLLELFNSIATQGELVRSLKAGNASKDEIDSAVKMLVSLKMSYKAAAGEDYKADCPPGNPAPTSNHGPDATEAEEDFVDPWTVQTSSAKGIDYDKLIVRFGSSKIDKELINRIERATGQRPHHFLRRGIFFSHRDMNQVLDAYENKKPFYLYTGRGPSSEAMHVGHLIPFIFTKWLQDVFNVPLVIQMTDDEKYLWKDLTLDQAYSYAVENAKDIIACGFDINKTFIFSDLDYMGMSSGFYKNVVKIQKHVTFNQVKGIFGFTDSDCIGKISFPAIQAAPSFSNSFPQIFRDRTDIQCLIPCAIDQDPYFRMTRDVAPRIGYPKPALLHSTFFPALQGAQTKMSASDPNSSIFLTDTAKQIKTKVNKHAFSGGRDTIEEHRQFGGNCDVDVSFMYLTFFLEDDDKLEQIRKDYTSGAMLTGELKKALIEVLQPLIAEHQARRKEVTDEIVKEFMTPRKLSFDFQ
Put plainly: western blot on HeLa and HCT116 cell lysates, purified scFv detected with anti-HA-HRP. (In general: In western blotting, separated proteins are transferred to a membrane and probed.)

For assay [2], the target named is T1, Full-length(FL)-WRS, human …. Put plainly: cell-based or functional assay.
For assay [3] the target is unchanged. Put plainly: SPR (Biacore 2000), FL-WRS immobilised on a CM5 chip, antibody 6.25-100 nM as analyte.

B1: 3C6 scFv (scFv)
scFv: EVQLLESGGGLVQPGGSLRLSCAASGFTFSSYDMSWVRQAPGKGLEWVSAISSGGSSIYYADSVKGRFTISRDNSKNTLYLQMNSLRAEDTAVYYCARDVAWDMLGDFDYWGQGTLVTVSSGGGGSGGGGSGGGGSQSVLTQPPSASGTPGQRVTISCTGSSSNIGSNYVYWYQQLPGTAPKLLIYANSHRPSGVPDRFSGSKSGTSASLAISGLRSEDEADYYCGAWDDSLSAYVFGGGTKLTV
notes: The scFv comes from an HA-tagged human scFv phage library; It was expressed in the E. coli periplasm, purified on Ni-NTA and detected with anti-HA-HRP; also called 3C6 scFv clone
In the case of B1, the binding result in assay [1] is listed as “binds”.

B2: 3C6 IgG 단일클론 항체 (anti-WRS(3C6) IgG) (antibody, V domains shown)
VH: EVQLLESGGGLVQPGGSLRLSCAASGFTFSSYDMSWVRQAPGKGLEWVSAISSGGSSIYYADSVKGRFTISRDNSKNTLYLQMNSLRAEDTAVYYCARDVAWDMLGDFDYWGQGTLVTVSS
VL: QSVLTQPPSASGTPGQRVTISCTGSSSNIGSNYVYWYQQLPGTAPKLLIYANSHRPSGVPDRFSGSKSGTSASLAISGLRSEDEADYYCGAWDDSLSAYVFGGGTKLTV
notes: The variable regions of the 3C6 scFv were converted to IgG (pcDNA3.4 vectors, expressed in HEK293F, purified on protein A); also called 3C6 IgG 항체; WRS(3C6) 항체
On to B2, for which, in assay [2], the “EC 50 (inhibition of human WRS-induced TNF-α secretion by differentiated THP-1 macrophages)” value is 0.035 nM. In assay [3], binding was put at a Kd of 17.2 nM, the koff came to 0.0011 s⁻¹ and the kon turned out to be 64100 M⁻¹ s⁻¹.

One may read the Kd as the constant that tells how readily two partners part at equilibrium. A higher Kd goes with weaker binding. A word on the koff: it is the first-order rate constant of dissociation. The term kon denotes a measure of how fast the partners come together. A higher kon goes with faster complex formation.
